# US20190359693A1 (Janssen / Centocor, published 2019)
# B1: SD1036 (VHH)
# VHH: EVQLVESGGGLVQAGGSLKLSCAASGRTYAMGWFRQAPGKEREFVAHINALGTRTYYSDSVKGRFTISRDNAKNTEYLEMNNLKPEDTAVYYCTAQGQWRAAPVAVAAEYEFWGQGTQVTVSS
# notes: llama sdAb
# Legend:
# [1] = molecular target: T1, HA of H7N7 A/Netherlands/219/2003 (influenza A virus, UniProt P36346 19-563); test: AlphaLISA competition vs CR9114
# [2] = molecular target: HA of H8N2 A/Env/MPJ1258/09 (influenza A virus); test: cell-based or functional assay
# [3] = molecular target: HA of H5N2 A/Eurasian Wigeon/MPF461/07 (influenza A virus); test: cell-based or functional assay
# [4] = molecular target: HA of H1N1 A/Solomon Islands/3/2006 (IVR 145) (influenza A virus); test: cell-based or functional assay
# [5] = molecular target: HA of H2N2 A/AnnArbor/23/57 (influenza A virus); test: cell-based or functional assay
# [6] = molecular target: HA of H9N2 A/Ck/HK/SSP176/09 (influenza A virus); test: cell-based or functional assay
# [7] = molecular target: HA of H9N2 A/HK/466419/09 (influenza A virus); test: cell-based or functional assay
# [8] = molecular target: HA of H6N1 A/Eurasian Wigeon/MPG1884/09 (influenza A virus); test: cell-based or functional assay
# [9] = molecular target: HA of H7N7 A/Common Teal/MPF139/07 (influenza A virus); test: cell-based or functional assay
# [10] = molecular target: HA of H3N2 A/Aichi/2/68 (influenza A virus, UniProt P03437 17-566); test: cell-based or functional assay
# [11] = molecular target: HA of H3N2 A/Victoria/210/09 (influenza A virus); test: cell-based or functional assay
# [12] = molecular target: HA of H1N1 A/Christchurch/16/10 (influenza A virus); test: cell-based or functional assay
# [13] = molecular target: HA of H10N3 A/Common Teal/MPH11/08 (influenza A virus); test: cell-based or functional assay
# [14] = molecular target: HA of H2N2 A/Guiyang/1/57 (influenza A virus); test: cell-based or functional assay
# [15] = molecular target: HA of H9N2 A/Great Cormorant/MP2934/04 (influenza A virus); test: cell-based or functional assay
# [16] = molecular target: HA of H3N2 A/Hiroshima/52/05 (influenza A virus); test: cell-based or functional assay
# [17] = molecular target: HA of H1N1 A/Mississippi/03/01 274H (influenza A virus); test: cell-based or functional assay
# [18] = molecular target: HA of H10N8 A/Jiangxi/346/2013 (influenza A virus); test: cell-based or functional assay
# [19] = molecular target: HA of H4N1 A/Northern Pintail/MPB1368/06 (influenza A virus); test: cell-based or functional assay
# [20] = molecular target: T2, HA of H3N2 A/HK/1/68 (influenza A virus, UniProt Q91MA7 17-530); test: cell-based or functional assay
# [21] = molecular target: HA of H10N7 A/Chick/Germany/N/49 (influenza A virus); test: cell-based or functional assay
# [22] = molecular target: HA of H1N1 A/Puerto Rico/8/34-MA (influenza A virus); test: cell-based or functional assay
# [23] = molecular target: HA of H6N1 A/Taiwan/2/2013 (influenza A virus); test: cell-based or functional assay
# [24] = molecular target: HA of H6N8 A/Eurasian Wigeon/MPD411/07 (influenza A virus); test: cell-based or functional assay
# [25] = molecular target: HA of H7N7 A/Northern Shoveler/MPF518/08 (influenza A virus); test: cell-based or functional assay
# [26] = molecular target: HA of H5N2 A/Eurasian Wigeon/HK/MPF333/07 (influenza A virus); test: cell-based or functional assay
# [27] = molecular target: HA of H8N4 A/Eurasian Wigeon/MPH571/08 (influenza A virus); test: cell-based or functional assay
# [28] = molecular target: HA of H3N2 A/HK/1/68-MA (influenza A virus); test: cell-based or functional assay
# [29] = molecular target: HA of H14N5 A/Mallard/Astrakhan/263/1982 (influenza A virus); test: cell-based or functional assay
# [30] = molecular target: HA of H7N7 A/PR8 H7N7-NY (influenza A virus); test: cell-based or functional assay
# [31] = molecular target: HA of H5N1 A/Indonesia/5/05 (influenza A virus); test: cell-based or functional assay
# [32] = molecular target: HA of H4N6 A/Great Cormorant/MPB1683/06 (influenza A virus); test: cell-based or functional assay
# [33] = molecular target: HA of H4 A/WF/HK/MPA892/06 (influenza A virus); test: cell-based or functional assay
# [34] = molecular target: HA of H1N1 A/WSN/33 (influenza A virus, UniProt P03454 18-565); test: cell-based or functional assay
# [35] = molecular target: HA of H7N9 A/Shanghai/2/13 (influenza A virus); test: cell-based or functional assay
# [36] = molecular target: HA of H1N1 A/HK/54/98 (influenza A virus); test: cell-based or functional assay
# [37] = molecular target: HA of H3N2 A/HK/1174/99 (influenza A virus); test: cell-based or functional assay
# [38] = molecular target: HA of H12N5 A/Env/MPK659/09 (influenza A virus); test: cell-based or functional assay
# [39] = molecular target: HA of H7N9 A/Anhui/1/13 (influenza A virus); test: cell-based or functional assay
# [40] = molecular target: HA of H7N9 A/Shanghai/1/13 (influenza A virus); test: cell-based or functional assay
# [41] = molecular target: T1, HA of H7N7 A/Netherlands/219/2003; test: cell-based or functional assay
# [42] = molecular target: HA of H1N2 A/Env/HK/MPU3156/05 (influenza A virus); test: cell-based or functional assay
# [43] = molecular target: HA of H3N2 A/Fukui/45/04 (influenza A virus); test: cell-based or functional assay
# [44] = molecular target: HA of H5N1 A/PR8 H5N1 HK97 (influenza A virus); test: cell-based or functional assay
# [45] = molecular target: HA of H2N2 A/Env/HK/MPU3156/05 (influenza A virus); test: cell-based or functional assay
# [46] = molecular target: HA of H11N9 A/Northern Pintail/MPC2085/07 (influenza A virus); test: cell-based or functional assay
# [47] = molecular target: HA of H10N9 A/Northern Shoveler/MPE2531/08 (influenza A virus); test: cell-based or functional assay
# [48] = molecular target: HA of H3N2 A/Johannesburg/33/94 (influenza A virus); test: cell-based or functional assay
# [49] = molecular target: HA of H3N2 A/Perth/16/09 (influenza A virus); test: cell-based or functional assay
# [50] = molecular target: HA of H3N2 A/Panama/2007/99 (influenza A virus); test: cell-based or functional assay
# [51] = molecular target: T2, HA of H3N2 A/HK/1/68; test: BLI steady state
binder,measurement,setting,value
B1,pIC50,[1],9.3
same,VNA titer,[2],> 1000 nM
same,VNA titer,[3],> 1000 nM
same,VNA titer,[4],> 1000 nM
same,VNA titer,[5],> 1000 nM
same,VNA titer,[6],> 1000 nM
same,VNA titer,[7],> 1000 nM
same,VNA titer,[8],> 1000 nM
same,VNA titer,[9],18.3 nM
same,VNA titer,[10],6.5 nM
same,VNA titer,[11],540 nM
same,VNA titer,[12],> 1000 nM
same,VNA titer,[13],28.9 nM
same,VNA titer,[14],> 1000 nM
same,VNA titer,[15],677 nM
same,VNA titer,[16],> 1000 nM
same,VNA titer,[17],> 1000 nM
same,VNA titer,[18],83.9 nM
same,VNA titer,[19],80.7 nM
same,VNA titer,[20],115 nM
same,VNA titer,[21],22.2 nM
same,VNA titer,[22],> 1000 nM
same,VNA titer,[23],> 1000 nM
same,VNA titer,[24],> 1000 nM
same,VNA titer,[25],44.7 nM
same,VNA titer,[26],> 1000 nM
same,VNA titer,[27],> 1000 nM
same,VNA titer,[28],73.2 nM
same,VNA titer,[29],16.2 nM
same,VNA titer,[30],8.8 nM
same,VNA titer,[31],> 1000 nM
same,VNA titer,[32],44.5 nM
same,VNA titer,[33],40.4 nM
same,VNA titer,[34],> 1000 nM
same,VNA titer,[35],33 nM
same,VNA titer,[36],> 1000 nM
same,VNA titer,[37],> 1000 nM
same,VNA titer,[38],> 1000 nM
same,VNA titer,[39],65.9 nM
same,VNA titer,[40],101 nM
same,VNA titer,[41],28.9 nM
same,VNA titer,[42],> 1000 nM
same,VNA titer,[43],> 1000 nM
same,VNA titer,[44],> 1000 nM
same,VNA titer,[45],> 1000 nM
same,VNA titer,[46],> 1000 nM
same,VNA titer,[47],19.9 nM
same,VNA titer,[48],601 nM
same,VNA titer,[49],76.4 nM
same,VNA titer,[50],> 1000 nM
same,Kd,[51],2 nM
